Here are results for 92 variants from IntAct's records for PubMed 29039417.

Sequences and labels used below:
B1: Protein PTHB1 (Homo sapiens), Q3SYG4 (parent)
chain: MSLFKARDWWSTILGDKEEFDQGCLCLANVDNSGNGQDKIIVGSFMGYLRIFSPHPAKTGDGAQAEDLLLEVDLRDPVLQVEVGKFVSGTEMLHLAVLHSRKLCVYSVSGTLGNVEHGNQCQMKLMYEHNLQRTACNMTYGSFGGVKGRDLICIQSMDGMLMVFEQESYAFGRFLPGFLLPGPLAYSSRTDSFLTVSSCQQVESYKYQVLAFATDADKRQETEQQKLGSGKRLVVDWTLNIGEQALDICIVSFNQSASSVFVLGERNFFCLKDNGQIRFMKKLDWSPSCFLPYCSVSEGTINTLIGNHNNMLHIYQDVTLKWATQLPHIPVAVRVGCLHDLKGVIVTLSDDGHLQCSYLGTDPSLFQAPNVQSRELNYDELDVEMKELQKIIKDVNKSQGVWPMTEREDDLNVSVVVSPNFDSVSQATDVEVGTDLVPSVTVKVTLQNRVILQKAKLSVYVQPPLELTCDQFTFEFMTPDLTRTVSFSVYLKRSYTPSELEGNAVVSYSRPTDRNPDGIPRVIQCKFRLPLKLICLPGQPSKTASHKITIDTNKSPVSLLSLFPGFASQSDDDQVNVMGFHFLGGARITVLASKTSQRYRIQSEQFEDLWLITNELILRLQEYFEKQGVKDFACSFSGSIPLQEYFELIDHHFELRINGEKLEELLSERAVQFRAIQRRLLARFKDKTPAPLQHLDTLLDGTYKQVIALADAVEENQGNLFQSFTRLKSATHLVILLIALWQKLSADQVAILEAAFLPLQEDTQELGWEETVDAAISHLLKTCLSKSSKEQALNLNSQLNIPKDTSQLKKHITLLCDRLSKGGRLCLSTDAAAPQTMVMPGGCTTIPESDLEERSVEQDSTELFTNHRHLTAETPRPEVSPLQGVSE
partner: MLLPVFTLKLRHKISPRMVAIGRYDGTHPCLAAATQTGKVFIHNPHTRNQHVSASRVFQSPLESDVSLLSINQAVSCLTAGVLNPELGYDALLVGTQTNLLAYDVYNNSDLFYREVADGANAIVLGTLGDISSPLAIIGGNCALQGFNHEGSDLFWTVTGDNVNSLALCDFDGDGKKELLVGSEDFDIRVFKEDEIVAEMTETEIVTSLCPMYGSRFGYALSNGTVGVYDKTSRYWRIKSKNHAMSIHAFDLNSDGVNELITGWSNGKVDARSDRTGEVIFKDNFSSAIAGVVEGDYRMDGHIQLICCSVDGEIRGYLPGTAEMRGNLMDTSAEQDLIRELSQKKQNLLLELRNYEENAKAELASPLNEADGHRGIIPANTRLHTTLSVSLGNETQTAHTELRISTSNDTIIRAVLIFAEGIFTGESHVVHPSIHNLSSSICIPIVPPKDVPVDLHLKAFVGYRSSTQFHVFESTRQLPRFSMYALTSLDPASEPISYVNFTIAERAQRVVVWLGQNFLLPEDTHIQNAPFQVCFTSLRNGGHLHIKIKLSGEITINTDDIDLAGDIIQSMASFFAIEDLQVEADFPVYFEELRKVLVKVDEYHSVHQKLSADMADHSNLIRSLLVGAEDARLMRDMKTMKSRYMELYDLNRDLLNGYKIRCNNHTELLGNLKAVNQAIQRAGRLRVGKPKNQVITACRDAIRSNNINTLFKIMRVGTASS

In this assay the parent is B1. Conditions: with bbs2_human BBS2, Q9BXC9.
For the variant R818A, the “effect of a mutation on the interaction” value is given as “with no effect”.

On to R818K, for which the “effect of a mutation on the interaction” value was “with no effect”.

With R818E, the “effect of a mutation on the interaction” value was “with no effect”.

Take S797A: the “effect of a mutation on the interaction” value was “with no effect”.

Consider S797E, for which the “effect of a mutation on the interaction” value is “with no effect”.

S797K: the “effect of a mutation on the interaction” value is “with no effect”.

As to S806A, the “effect of a mutation on the interaction” value was “with no effect”.

For S806E, the “effect of a mutation on the interaction” value is recorded as “with no effect”.

Turning to S806K, the “effect of a mutation on the interaction” value is “with no effect”.

Take N794A: the “effect of a mutation on the interaction” value was “with no effect”.

For N794K, the “effect of a mutation on the interaction” value is recorded as “with no effect”.

With N794E, the “effect of a mutation on the interaction” value is “with no effect”.

L819E: the “effect of a mutation on the interaction” value is reported as “with no effect”.

For L819A, the “effect of a mutation on the interaction” value was “with no effect”.

With L819K, the “effect of a mutation on the interaction” value is listed as “with no effect”.

On to N796K, for which the “effect of a mutation on the interaction” value was “with no effect”.

For N796E, the “effect of a mutation on the interaction” value is listed as “with no effect”.

On to N796A, for which the “effect of a mutation on the interaction” value was “with no effect”.

For the variant D804K, the “effect of a mutation on the interaction” value is “with no effect”.

Regarding D804E, the “effect of a mutation on the interaction” value is reported as “with no effect”.

As for D804F, the “effect of a mutation on the interaction” value is reported as “disrupting interaction strength”.

As to D804A, the “effect of a mutation on the interaction” value was “with no effect”.

Take T805I: the “effect of a mutation on the interaction” value is reported as “disrupting interaction strength”.

On to T805A, for which the “effect of a mutation on the interaction” value is recorded as “with no effect”.

For T805K, the “effect of a mutation on the interaction” value is “with no effect”.

As to T805E, the “effect of a mutation on the interaction” value is “with no effect”.

In the case of L793A, the “effect of a mutation on the interaction” value is reported as “with no effect”.

Consider L793K, for which the “effect of a mutation on the interaction” value is listed as “with no effect”.

Turning to L793E, the “effect of a mutation on the interaction” value is reported as “with no effect”.

For L814E, the “effect of a mutation on the interaction” value is listed as “with no effect”.

As for L814A, the “effect of a mutation on the interaction” value was “with no effect”.

As for L814K, the “effect of a mutation on the interaction” value is “with no effect”.

Consider S820E, for which the “effect of a mutation on the interaction” value is listed as “with no effect”.

As to S820K, the “effect of a mutation on the interaction” value was “with no effect”.

In the case of S820A, the “effect of a mutation on the interaction” value was “with no effect”.

On to D817A, for which the “effect of a mutation on the interaction” value is recorded as “with no effect”.

With D817K, the “effect of a mutation on the interaction” value is given as “with no effect”.

In the case of D817E, the “effect of a mutation on the interaction” value was “with no effect”.

As to P802E, the “effect of a mutation on the interaction” value is “with no effect”.

As for P802K, the “effect of a mutation on the interaction” value is given as “with no effect”.

As for P802A, the “effect of a mutation on the interaction” value is “with no effect”.

For G822A, the “effect of a mutation on the interaction” value is given as “with no effect”.

In the case of G822E, the “effect of a mutation on the interaction” value is on record as “with no effect”.

As to G822K, the “effect of a mutation on the interaction” value is on record as “with no effect”.

For L799K, the “effect of a mutation on the interaction” value was “with no effect”.

For L799A, the “effect of a mutation on the interaction” value was “with no effect”.

For L799E, the “effect of a mutation on the interaction” value is “with no effect”.

For Q807E, the “effect of a mutation on the interaction” value was “with no effect”.

Take Q807A: the “effect of a mutation on the interaction” value is given as “with no effect”.

As for Q807K, the “effect of a mutation on the interaction” value is listed as “with no effect”.

Turning to K803A, the “effect of a mutation on the interaction” value is listed as “with no effect”.

K803E: the “effect of a mutation on the interaction” value is listed as “with no effect”.

For K809A, the “effect of a mutation on the interaction” value is on record as “with no effect”.

For the variant K809E, the “effect of a mutation on the interaction” value is listed as “with no effect”.

N800K: the “effect of a mutation on the interaction” value is recorded as “with no effect”.

For the variant N800A, the “effect of a mutation on the interaction” value is “with no effect”.

With N800E, the “effect of a mutation on the interaction” value is reported as “with no effect”.

As for K810E, the “effect of a mutation on the interaction” value is given as “with no effect”.

Consider K810A, for which the “effect of a mutation on the interaction” value is reported as “with no effect”.

In the case of I812A, the “effect of a mutation on the interaction” value is recorded as “with no effect”.

For I812K, the “effect of a mutation on the interaction” value was “with no effect”.

As for I812E, the “effect of a mutation on the interaction” value is “with no effect”.

K821A: the “effect of a mutation on the interaction” value is recorded as “with no effect”.

On to K821E, for which the “effect of a mutation on the interaction” value is listed as “with no effect”.

For the variant T813A, the “effect of a mutation on the interaction” value is given as “with no effect”.

On to T813E, for which the “effect of a mutation on the interaction” value is listed as “with no effect”.

In the case of T813K, the “effect of a mutation on the interaction” value is “with no effect”.

Regarding T813C, the “effect of a mutation on the interaction” value is “disrupting interaction strength”.

As for L815K, the “effect of a mutation on the interaction” value is “with no effect”.

For L815F, the “effect of a mutation on the interaction” value is given as “disrupting interaction strength”.

Regarding L815A, the “effect of a mutation on the interaction” value was “with no effect”.

L815E: the “effect of a mutation on the interaction” value is “with no effect”.

With L795E, the “effect of a mutation on the interaction” value was “with no effect”.

Consider L795A, for which the “effect of a mutation on the interaction” value is “with no effect”.

L795K: the “effect of a mutation on the interaction” value is on record as “with no effect”.

Take Q798A: the “effect of a mutation on the interaction” value is recorded as “with no effect”.

For the variant Q798K, the “effect of a mutation on the interaction” value is recorded as “with no effect”.

Consider Q798E, for which the “effect of a mutation on the interaction” value is recorded as “with no effect”.

Turning to H811K, the “effect of a mutation on the interaction” value is given as “with no effect”.

As for H811A, the “effect of a mutation on the interaction” value is “with no effect”.

H811E: the “effect of a mutation on the interaction” value is on record as “with no effect”.

For the variant L808E, the “effect of a mutation on the interaction” value is “disrupting interaction strength”.

Take L808A: the “effect of a mutation on the interaction” value is given as “with no effect”.

With L808K, the “effect of a mutation on the interaction” value is “with no effect”.

On to I801A, for which the “effect of a mutation on the interaction” value was “with no effect”.

On to I801K, for which the “effect of a mutation on the interaction” value was “with no effect”.

As for I801E, the “effect of a mutation on the interaction” value is given as “with no effect”.

For C816E, the “effect of a mutation on the interaction” value is recorded as “with no effect”.

For C816A, the “effect of a mutation on the interaction” value is recorded as “with no effect”.

For the variant C816K, the “effect of a mutation on the interaction” value is recorded as “with no effect”.

With A792K, the “effect of a mutation on the interaction” value is on record as “with no effect”.

For the variant A792E, the “effect of a mutation on the interaction” value was “with no effect”.
